Data on 2 substances can be found in US20170035908A1.

In assay [1] the target is PAM4 antigen (pancreatic cancer mucin, CaPan1 human pancreatic tumor). Description: ELISA on target mucin antigen (FIG. 9).
In assay [2] the target is IMP-288 di-HSG hapten-peptide, DOTA-D-Tyr-D-Lys(HSG)-D-Glu-D-Lys(HSG)-NH2. Nature of the assay: 111In-IMP-288 mixed with TF10, elution analysis (not shown).
Assay [3] concerns the target PAM4 antigen (pancreatic cancer mucin, CaPan1 human pancreatic tumor). Nature of the assay: radioiodinated TF10 mixed with mucin (not shown).
The target is the same in assay [4]. Description: TF10/111In-IMP-288 complex mixed with excess mucin, elution analysis.

On to PAM4-F(ab′)2, for which, in assay [1], the EC50 was determined as 1.83 nM.
The substance “TF10 bispecific ([hPAM4]2 x h679) DNL construct (bispecific antibody)” yielded a percent of peptide bound in assay [2] of 90%. Also, in assay [1], the EC50 is 1.42 nM. In addition, the immunoreactive fraction in assay [3] came out at 87%. The same substance showed a percent of TF10-bound IMP-288 eluting at higher molecular weight with excess mucin in assay [4] of 92%.

Broadly, the EC50 is the concentration that produces a half-maximal response. A low value points to a more potent agent.
